Consider 33 molecules from patent US20240270846A1 (published 2024).

Where a chain is given by its changes, count along the chain named. In names and notes the source's numbering stands.

Sequences and labels used below:
B1: CE115HA000/GLS3000 N53V one-arm antibody (antibody, human IgG1, kappa, L234A L235A, N297A, name in Kabat numbering)
heavy: QVQLVESGGGVVQPGRSLRLSCAASGFTFSNAWMHWVRQAPGKGLEWVAQIKAKSNNYATYYAESVKGRFTISRDDSKNSLYLQMNSLKTEDTAVYYCRYVHYGAYYGVDAWGQGTTVTVSSASTKGPSVFPLAPSSKSTSGGTAALGCLVKDYFPEPVTVSWNSGALTSGVHTFPAVLQSSGLYSLSSVVTVPSSSLGTQTYICNVNHKPSNTKVDKKVEPKSCDKTHTCPPCPAPEAAGGPSVFLFPPKPKDTLMISRTPEVTCVVVDVSHEDPEVKFNWYVDGVEVHNAKTKPREEQYASTYRVVSVLTVLHQDWLNGKEYKCKVSNKALPAPIEKTISKAKGQPREPQVYTLPPSRCELTKNQVSLSCAVKGFYPSDIAVEWESNGQPENNYKTTPPVLDSDGSFFLVSKLTVDKSRWQQGNVFSCSVMHEALHNHYTQKSLSLSPDYKDDDDK
chain: EPKSSDKTHTCPPCPAPELLGGPSVFLFPPKPKDTLMISRTPEVTCVVVDVSHEDPEVKFNWYVDGVEVHNAKTKPREEQYNSTYRVVSVLTVLHQDWLNGKEYKCKVSNKALPAPIEKTISKAKGQPREPQVCTLPPSRDELTKNQVSLWCLVKGFYPSDIAVEWESNGQPENNYKTTPPVLDSDGSFFLYSKLTVDKSRWQQGNVFSCSVMHEALHNRYTQKSLSLSP
light: DIVMTQSPLSLPVTPGEPASISCRSSQSLVHSNRNTYLHWYQQKPGQAPRLLIYKVSVRFSGVPDRFSGSGSGTDFTLKISRVEAEDVGVYYCGQGTQVPYTFGQGTKLEIKRTVAAPSVFIFPPSDEQLKSGTASVVCLLNNFYPREAKVQWKVDNALQSGNSQESVTEQDSKDSTYSLSSTLTLSKADYEKHKVYACEVTHQGLSSPVTKSFNRGEC
notes: one-arm IgG1
B2: CE115HA000/GLS3000 Q90A one-arm antibody (antibody, human IgG1, kappa, L234A L235A, N297A, name in Kabat numbering)
heavy: B1 heavy
chain: B1 chain
light: B1 light with V58N, Q95A
notes: one-arm IgG1
B3: CE115HA000/GLS3000 P95E one-arm antibody (antibody, human IgG1, kappa, L234A L235A, N297A, name in Kabat numbering)
heavy: B1 heavy
chain: B1 chain
light: B1 light with V58N, P100E
notes: one-arm IgG1
B4: CE115HA000/GLS3000 S52Q one-arm antibody (antibody, human IgG1, kappa, L234A L235A, N297A, name in Kabat numbering)
heavy: B1 heavy
chain: B1 chain
light: B1 light with S57Q, V58N
notes: one-arm IgG1
B5: CE115HA000/GLS3000 P95G one-arm antibody (antibody, human IgG1, kappa, L234A L235A, N297A, name in Kabat numbering)
heavy: B1 heavy
chain: B1 chain
light: B1 light with V58N, P100G
notes: one-arm IgG1
B6: CE115HA000/GLS3000 R54P one-arm antibody (antibody, human IgG1, kappa, L234A L235A, N297A, name in Kabat numbering)
heavy: B1 heavy
chain: B1 chain
light: B1 light with V58N, R59P
notes: one-arm IgG1
B7: CE115HA000/GLS3000 S56D one-arm antibody (antibody, human IgG1, kappa, L234A L235A, N297A, name in Kabat numbering)
heavy: B1 heavy
chain: B1 chain
light: B1 light with V58N, S61D
notes: one-arm IgG1
B8: CE115HA000/GLS3000 S56K one-arm antibody (antibody, human IgG1, kappa, L234A L235A, N297A, name in Kabat numbering)
heavy: B1 heavy
chain: B1 chain
light: B1 light with V58N, S61K
notes: one-arm IgG1
B9: CE115HA000/GLS3000 S52D one-arm antibody (antibody, human IgG1, kappa, L234A L235A, N297A, name in Kabat numbering)
heavy: B1 heavy
chain: B1 chain
light: B1 light with S57D, V58N
notes: one-arm IgG1
B10: CE115HA000/GLS3000 N53W one-arm antibody (antibody, human IgG1, kappa, L234A L235A, N297A, name in Kabat numbering)
heavy: B1 heavy
chain: B1 chain
light: B1 light with V58W
notes: one-arm IgG1
B11: CE115HA000/GLS3000 S52Y one-arm antibody (antibody, human IgG1, kappa, L234A L235A, N297A, name in Kabat numbering)
heavy: B1 heavy
chain: B1 chain
light: B1 light with S57Y, V58N
notes: one-arm IgG1
B12: CE115HA000/GLS3000 Q93A one-arm antibody (antibody, human IgG1, kappa, L234A L235A, N297A, name in Kabat numbering)
heavy: B1 heavy
chain: B1 chain
light: B1 light with V58N, Q98A
notes: one-arm IgG1
B13: CE115HA000/GLS3000 R54D one-arm antibody (antibody, human IgG1, kappa, L234A L235A, N297A, name in Kabat numbering)
heavy: B1 heavy
chain: B1 chain
light: B1 light with V58N, R59D
notes: one-arm IgG1
B14: CE115HA000/GLS3000 S56F one-arm antibody (antibody, human IgG1, kappa, L234A L235A, N297A, name in Kabat numbering)
heavy: B1 heavy
chain: B1 chain
light: B1 light with V58N, S61F
notes: one-arm IgG1
B15: CE115HA000/GLS3000 S56G one-arm antibody (antibody, human IgG1, kappa, L234A L235A, N297A, name in Kabat numbering)
heavy: B1 heavy
chain: B1 chain
light: B1 light with V58N, S61G
notes: one-arm IgG1
B16: CE115HA000/GLS3000 Q90E one-arm antibody (antibody, human IgG1, kappa, L234A L235A, N297A, name in Kabat numbering)
heavy: B1 heavy
chain: B1 chain
light: B1 light with V58N, Q95E
notes: one-arm IgG1
B17: CE115HA000/GLS3000 R54W one-arm antibody (antibody, human IgG1, kappa, L234A L235A, N297A, name in Kabat numbering)
heavy: B1 heavy
chain: B1 chain
light: B1 light with V58N, R59W
notes: one-arm IgG1
B18: CE115HA000/GLS3000 Q93E one-arm antibody (antibody, human IgG1, kappa, L234A L235A, N297A, name in Kabat numbering)
heavy: B1 heavy
chain: B1 chain
light: B1 light with V58N, Q98E
notes: one-arm IgG1
B19: CE115HA000/GLS3000 S56E one-arm antibody (antibody, human IgG1, kappa, L234A L235A, N297A, name in Kabat numbering)
heavy: B1 heavy
chain: B1 chain
light: B1 light with V58N, S61E
notes: one-arm IgG1
B20: CE115HA000/GLS3000 Q93D one-arm antibody (antibody, human IgG1, kappa, L234A L235A, N297A, name in Kabat numbering)
heavy: B1 heavy
chain: B1 chain
light: B1 light with V58N, Q98D
notes: one-arm IgG1
B21: CE115HA000/GLS3000 S56H one-arm antibody (antibody, human IgG1, kappa, L234A L235A, N297A, name in Kabat numbering)
heavy: B1 heavy
chain: B1 chain
light: B1 light with V58N, S61H
notes: one-arm IgG1
B22: CE115HA000/GLS3000 N53Y one-arm antibody (antibody, human IgG1, kappa, L234A L235A, N297A, name in Kabat numbering)
heavy: B1 heavy
chain: B1 chain
light: B1 light with V58Y
notes: one-arm IgG1
B23: CE115HA000/GLS3000 R54E one-arm antibody (antibody, human IgG1, kappa, L234A L235A, N297A, name in Kabat numbering)
heavy: B1 heavy
chain: B1 chain
light: B1 light with V58N, R59E
notes: one-arm IgG1
B24: CE115HA000/GLS3000 S52P one-arm antibody (antibody, human IgG1, kappa, L234A L235A, N297A, name in Kabat numbering)
heavy: B1 heavy
chain: B1 chain
light: B1 light with S57P, V58N
notes: one-arm IgG1
B25: CE115HA000/GLS3000 R54S one-arm antibody (antibody, human IgG1, kappa, L234A L235A, N297A, name in Kabat numbering)
heavy: B1 heavy
chain: B1 chain
light: B1 light with V58N, R59S
notes: one-arm IgG1
B26: CE115HA000/GLS3000 R54G one-arm antibody (antibody, human IgG1, kappa, L234A L235A, N297A, name in Kabat numbering)
heavy: B1 heavy
chain: B1 chain
light: B1 light with V58N, R59G
notes: one-arm IgG1
B27: CE115HA000/GLS3000 P95D one-arm antibody (antibody, human IgG1, kappa, L234A L235A, N297A, name in Kabat numbering)
heavy: B1 heavy
chain: B1 chain
light: B1 light with V58N, P100D
notes: one-arm IgG1
B28: CE115HA000/GLS3000 P95A one-arm antibody (antibody, human IgG1, kappa, L234A L235A, N297A, name in Kabat numbering)
heavy: B1 heavy
chain: B1 chain
light: B1 light with V58N, P100A
notes: one-arm IgG1
B29: CE115HA000/GLS3000 R54Q one-arm antibody (antibody, human IgG1, kappa, L234A L235A, N297A, name in Kabat numbering)
heavy: B1 heavy
chain: B1 chain
light: B1 light with V58N, R59Q
notes: one-arm IgG1
B30: CE115HA000/GLS3000 S56I one-arm antibody (antibody, human IgG1, kappa, L234A L235A, N297A, name in Kabat numbering)
heavy: B1 heavy
chain: B1 chain
light: B1 light with V58N, S61I
notes: one-arm IgG1
B31: CE115HA000/GLS3000 R54T one-arm antibody (antibody, human IgG1, kappa, L234A L235A, N297A, name in Kabat numbering)
heavy: B1 heavy
chain: B1 chain
light: B1 light with V58N, R59T
notes: one-arm IgG1
B32: CE115HA000/GLS3000 P95L one-arm antibody (antibody, human IgG1, kappa, L234A L235A, N297A, name in Kabat numbering)
heavy: B1 heavy
chain: B1 chain
light: B1 light with V58N, P100L
notes: one-arm IgG1
B33: CE115HA000/GLS3000 Q90D one-arm antibody (antibody, human IgG1, kappa, L234A L235A, N297A, name in Kabat numbering)
heavy: B1 heavy
chain: B1 chain
light: B1 light with V58N, Q95D
notes: one-arm IgG1

In the experiment the target is T1, CD3 epsilon homodimer protein (UniProt P07766 23-126).
T1 construct: also called CD3 (CD3 epsilon)
T1 sequence (P07766 23-126): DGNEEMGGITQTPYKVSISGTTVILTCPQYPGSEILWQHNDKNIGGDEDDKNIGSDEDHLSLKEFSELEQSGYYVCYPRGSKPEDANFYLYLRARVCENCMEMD
The experiment can be described thus: SPR (Biacore T200), CD3e homodimer on CM4 chip, antibody as analyte; KD ratio vs unaltered GLS3000.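 Further: CD3 epsilon homodimer amine-coupled to the sensor surface, antibodies injected as analyte at 25 °C with HBS-EP+ running buffer.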
Consider B1, for which the “KD ratio to GLS3000” value is 2.14 ratio.

Regarding B2, the “KD ratio to GLS3000” value was 0.89 ratio.

As to B3, the “KD ratio to GLS3000” value came to 1.01 ratio.

Consider B4, for which the “KD ratio to GLS3000” value came to 1.01 ratio.

Turning to B5, the “KD ratio to GLS3000” value amounted to 1.94 ratio.

With B6, the “KD ratio to GLS3000” value was 1.05 ratio.

With B7, the “KD ratio to GLS3000” value is 1.11 ratio.

B8: the “KD ratio to GLS3000” value worked out at 1.21 ratio.

On to B9, for which the “KD ratio to GLS3000” value is 0.94 ratio.

Regarding B10, the “KD ratio to GLS3000” value turned out to be 1.01 ratio.

With B11, the “KD ratio to GLS3000” value was determined as 1.02 ratio.

Regarding B12, the “KD ratio to GLS3000” value worked out at 0.65 ratio.

On to B13, for which the “KD ratio to GLS3000” value worked out at 1.8 ratio.

Consider B14, for which the “KD ratio to GLS3000” value stood at 1.12 ratio.

With B15, the “KD ratio to GLS3000” value is 0.99 ratio.

As to B16, the “KD ratio to GLS3000” value was found to be 0.91 ratio.

Take B17: the “KD ratio to GLS3000” value turned out to be 0.65 ratio.

Consider B18, for which the “KD ratio to GLS3000” value stood at 1.05 ratio.

In the case of B19, the “KD ratio to GLS3000” value was 0.91 ratio.

Take B20: the “KD ratio to GLS3000” value is 0.72 ratio.

With B21, the “KD ratio to GLS3000” value was 0.96 ratio.

Take B22: the “KD ratio to GLS3000” value stood at 0.99 ratio.

With B23, the “KD ratio to GLS3000” value worked out at 0.84 ratio.

B24: the “KD ratio to GLS3000” value stood at 7.38 ratio.

As to B25, the “KD ratio to GLS3000” value worked out at 0.78 ratio.

In the case of B26, the “KD ratio to GLS3000” value was determined as 0.88 ratio.

For B27, the “KD ratio to GLS3000” value amounted to 2.37 ratio.

As for B28, the “KD ratio to GLS3000” value was 0.87 ratio.

In the case of B29, the “KD ratio to GLS3000” value is 1.04 ratio.

As for B30, the “KD ratio to GLS3000” value was 1.01 ratio.

Turning to B31, the “KD ratio to GLS3000” value came to 0.89 ratio.

As for B32, the “KD ratio to GLS3000” value turned out to be 11.7 ratio.

With B33, the “KD ratio to GLS3000” value came to 11.1 ratio.
